Data: US20230002496A1 (STAIDSON BEIJING BIOPHARMACEUTICALS, published 2023)
Substitutions are numbered along the chain they refer to.

T1: human GM-CSFRα, full length on cells (human, UniProt P15509 23-400)
T1 sequence: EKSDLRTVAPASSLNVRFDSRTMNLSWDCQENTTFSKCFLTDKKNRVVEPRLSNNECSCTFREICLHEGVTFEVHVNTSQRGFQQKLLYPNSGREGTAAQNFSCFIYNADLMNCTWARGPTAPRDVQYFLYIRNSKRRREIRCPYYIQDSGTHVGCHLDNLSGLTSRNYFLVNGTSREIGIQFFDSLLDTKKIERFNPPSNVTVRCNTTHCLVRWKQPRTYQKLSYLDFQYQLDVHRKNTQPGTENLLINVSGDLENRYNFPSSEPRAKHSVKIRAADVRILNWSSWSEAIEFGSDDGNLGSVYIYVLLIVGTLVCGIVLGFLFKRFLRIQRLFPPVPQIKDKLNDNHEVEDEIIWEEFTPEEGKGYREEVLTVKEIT

B1: E35-scFv LY32V (scFv, V domains shown)
VH: QMQLVQSGAEVKKPGASVKVSCKVSGYTLTELSIHWVRQAPGKGLEWMGGFDPEDGETIYAQKFQGRVTMTGDTSTDTAYLELSSLRSEDTALYYCATGRYTSLATTYGFDYWGQGTLVTVSS
VL: EIVMTQSPATLSLSPGERATLSCRASQSVSSVLAWYQQKPGQAPRLLIYGASSRATGIPDRFSGSGSGTDFTLTISRLEPEDFAVYYCQQYDNWPYTFGQGTKLEIK
B2: E35-scFv LA51H (scFv, V domains shown)
VH: B1 VH
VL: B1 VL with V32Y, A51H
B3: E35-scFv LA51M (scFv, V domains shown)
VH: B1 VH
VL: B1 VL with V32Y, A51M
B4: E35-scFv LS52H (scFv, V domains shown)
VH: B1 VH
VL: B1 VL with V32Y, S52H
B5: E35-scFv LY32C (scFv, V domains shown)
VH: B1 VH
VL: B1 VL with V32C
B6: E35-scFv LA51G (scFv, V domains shown)
VH: B1 VH
VL: B1 VL with V32Y, A51G
B7: E35-scFv LS52N (scFv, V domains shown)
VH: B1 VH
VL: B1 VL with V32Y, S52N
B8: E35-scFv LS52P (scFv, V domains shown)
VH: B1 VH
VL: B1 VL with V32Y, S52P
B9: E35-scFv LY32E (scFv, V domains shown)
VH: B1 VH
VL: B1 VL with V32E
B10: E35-scFv LY32P (scFv, V domains shown)
VH: B1 VH
VL: B1 VL with V32P
B11: E35-scFv LA51F (scFv, V domains shown)
VH: B1 VH
VL: B1 VL with V32Y, A51F
B12: E35-scFv LA51T (scFv, V domains shown)
VH: B1 VH
VL: B1 VL with V32Y, A51T
B13: E35-scFv LA51C (scFv, V domains shown)
VH: B1 VH
VL: B1 VL with V32Y, A51C
B14: E35-scFv LY32K (scFv, V domains shown)
VH: B1 VH
VL: B1 VL with V32K
B15: E35-scFv LA51R (scFv, V domains shown)
VH: B1 VH
VL: B1 VL with V32Y, A51R
B16: E35-scFv LY32R (scFv, V domains shown)
VH: B1 VH
VL: B1 VL with V32R
B17: E35-scFv LS52A (scFv, V domains shown)
VH: B1 VH
VL: B1 VL with V32Y, S52A
B18: E35-scFv LS52Q (scFv, V domains shown)
VH: B1 VH
VL: B1 VL with V32Y, S52Q
B19: E35-scFv LA51V (scFv, V domains shown)
VH: B1 VH
VL: B1 VL with V32Y, A51V
B20: E35-scFv LS52D (scFv, V domains shown)
VH: B1 VH
VL: B1 VL with V32Y, S52D
B21: E35-scFv LA51N (scFv, V domains shown)
VH: B1 VH
VL: B1 VL with V32Y, A51N
B22: E35-scFv LY32G (scFv, V domains shown)
VH: B1 VH
VL: B1 VL with V32G
B23: E35-scFv LY32A (scFv, V domains shown)
VH: B1 VH
VL: B1 VL with V32A
B24: E35-scFv LA51S (scFv, V domains shown)
VH: B1 VH
VL: B1 VL with V32Y, A51S
B25: E35-scFv LS52T (scFv, V domains shown)
VH: B1 VH
VL: B1 VL with V32Y, S52T
B26: E35-scFv LS52Y (scFv, V domains shown)
VH: B1 VH
VL: B1 VL with V32Y, S52Y
B27: E35-scFv LS52W (scFv, V domains shown)
VH: B1 VH
VL: B1 VL with V32Y, S52W
B28: E35-scFv LA51K (scFv, V domains shown)
VH: B1 VH
VL: B1 VL with V32Y, A51K
B29: E35-scFv LS52F (scFv, V domains shown)
VH: B1 VH
VL: B1 VL with V32Y, S52F
B30: E35-scFv LS52L (scFv, V domains shown)
VH: B1 VH
VL: B1 VL with V32Y, S52L
B31: E35-scFv LY32N (scFv, V domains shown)
VH: B1 VH
VL: B1 VL with V32N
B32: E35-scFv LA51L (scFv, V domains shown)
VH: B1 VH
VL: B1 VL with V32Y, A51L
B33: E35-scFv LS52R (scFv, V domains shown)
VH: B1 VH
VL: B1 VL with V32Y, S52R

Each binder was assayed against T1, human GM-CSFRα, full length on cells (assay: cell-based or functional assay).
B1 was tested, and the “IC50, TF-1 cell proliferation” value was 1.23 µg/mL. For B2, the “IC50, TF-1 cell proliferation” value was 0.162 µg/mL. For B3, the “IC50, TF-1 cell proliferation” value was 0.264 µg/mL. For B4, the “IC50, TF-1 cell proliferation” value was 0.192 µg/mL. With B5 the “IC50, TF-1 cell proliferation” value was 1.9 µg/mL. B6 was tested, and the “IC50, TF-1 cell proliferation” value was 0.12 µg/mL. B7 was tested, and the “IC50, TF-1 cell proliferation” value was 0.253 µg/mL. B8 was tested, and the “IC50, TF-1 cell proliferation” value was 1.05 µg/mL. For B9, the “IC50, TF-1 cell proliferation” value was 3.75 µg/mL. With B10 the “IC50, TF-1 cell proliferation” value was 5.15 µg/mL. With B11 the “IC50, TF-1 cell proliferation” value was 0.294 µg/mL. In the case of B12, the “IC50, TF-1 cell proliferation” value is reported as 0.18 µg/mL. For B13, the “IC50, TF-1 cell proliferation” value was 0.37 µg/mL. B14 was tested, and the “IC50, TF-1 cell proliferation” value was 9.6 µg/mL. In the case of B15, the “IC50, TF-1 cell proliferation” value is reported as 0.12 µg/mL. In the case of B16, the “IC50, TF-1 cell proliferation” value is reported as 3.12 µg/mL. With B17 the “IC50, TF-1 cell proliferation” value was 0.068 µg/mL. For B18, the “IC50, TF-1 cell proliferation” value was 0.138 µg/mL. B19 was tested, and the “IC50, TF-1 cell proliferation” value was 0.36 µg/mL. In the case of B20, the “IC50, TF-1 cell proliferation” value is reported as 1.75 µg/mL. B21 was tested, and the “IC50, TF-1 cell proliferation” value was 0.36 µg/mL. B22 was tested, and the “IC50, TF-1 cell proliferation” value was 1.35 µg/mL. In the case of B23, the “IC50, TF-1 cell proliferation” value is reported as 1.35 µg/mL. B24 was tested, and the “IC50, TF-1 cell proliferation” value was 0.18 µg/mL. B25 was tested, and the “IC50, TF-1 cell proliferation” value was 0.136 µg/mL. With B26 the “IC50, TF-1 cell proliferation” value was 0.181 µg/mL. In the case of B27, the “IC50, TF-1 cell proliferation” value is reported as 0.073 µg/mL. B28 was tested, and the “IC50, TF-1 cell proliferation” value was 0.168 µg/mL. B29 was tested, and the “IC50, TF-1 cell proliferation” value was 0.167 µg/mL. For B30, the “IC50, TF-1 cell proliferation” value was 0.115 µg/mL. For B31, the “IC50, TF-1 cell proliferation” value was 2.05 µg/mL. With B32 the “IC50, TF-1 cell proliferation” value was 0.5 µg/mL. With B33 the “IC50, TF-1 cell proliferation” value was 0.089 µg/mL.
